For the assay, the target named is T1, GST-tagged recombinant PfPHB2 (Plasmodium falciparum (3D7), UniProt Q8IJP8 1-304).
T1 sequence (looked up): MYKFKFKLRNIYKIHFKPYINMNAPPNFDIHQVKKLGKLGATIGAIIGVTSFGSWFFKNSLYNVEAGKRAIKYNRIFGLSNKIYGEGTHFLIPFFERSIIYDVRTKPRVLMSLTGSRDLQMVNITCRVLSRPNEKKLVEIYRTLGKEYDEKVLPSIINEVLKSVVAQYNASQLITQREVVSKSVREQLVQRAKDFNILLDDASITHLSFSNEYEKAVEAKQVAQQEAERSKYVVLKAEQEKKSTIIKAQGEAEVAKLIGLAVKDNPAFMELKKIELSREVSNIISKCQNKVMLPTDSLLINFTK
The assay is described as follows: MST.

B1: GST-tagged recombinant PfPHB1 (natural protein, Plasmodium falciparum (3D7), UniProt Q8IBC3 1-272, looked up)
chain: MERILSSIGKLSVVAGGLSLIPYTFIYDVDGGERCVMFNRFGGVSENTFGEGSHFYVPWFQTPYIYDIKMKPKVINTTTGTRDLQIVTISLRLLFRPHTQHLPYLHSTLGPDYDERVLPSIGNEVLKAVVAKYNAESLLTQRDKISKEIRESITARAKHFNILLDDVAITHLSYGKEFAKAIEDKQVAQQESERVKFIVAKTEQEKIAAVIKAQGEAEAAKLISSAVKEYGKSLIEIRKLEAAKEIAENLSKSKNVTYFPSNSNILLNPRDF
modifications: Lysine reactive dye (Monolith Protein Labelling Kit Red-NHS 2nd Generation), in the MST only
As to B1, the Kd (usually a measure of binding affinity in units of concentration) came to 136 ± 10.5 nM.

The record behind these values is article doi:10.1101/2022.06.02.494630 (bioRxiv, 2022).
